Results on one molecule are retold here after patent KR20210053410A.

The assay has as its target 개 인플루엔자 바이러스 H3N2 (Canine influenza virus H3N2). In words: cell-based or functional assay.

B1: 개 인플루엔자 바이러스 단일클론항체 3E2 (antibody, V domains shown)
VH: EVKLVESGGGLVQPGGSLRLSCATSGFTFTDYYMSWVRQPPGKALEWLGFIRNKANGYTTEYSASVKGRFTISRDNSQSILYLQMNTLRPEDSATYYCARDTPVARGVCLLGQGTLVTVSA
VL: DIVMTQSPSSLAVSAGEKVTMSCKSSQSLLNSRTRQNYLAWYQQKPGQSPKLLIYWASTRESGVPDRFTGSGSGTDFTLTISSVQAEDLAVYYCKQSYSLWTFGGGTKLEIK
With B1, the HI titer (3E2 mAb 하이브리도마 상층액) amounted to 128 and the HI titer (3E2 mAb) is 131000.
